From patent publication US20190202908A1 (Harvard, published 2019)

Target: EGFP (UniProt P42212 1-238 = GFP)
Assay: Biacore (SPR)

B1: GBP6 nanobody alone (VHH)
VHH: QVQLQESGGGSVQTGGSLRLSCAVSPYIGSRISLGWFRQAPGKVREGVALINSRDGSTYYADTVKGRFTISQGDANTVYLQMNSLKPEDTAIYYCAARWGQITDIQALAVASFPDWGQGTQVTVSS
notes: also called GPB6
Kd: 2.26 nM
